Earlier results, collected in paper PMC11172262.

Target: Claudin-1 (Homo sapiens) (UniProt O95832)

Substance: Claudin-1 ECL1 (from UniProt O95832)
- Kd: 47 nM
